In series [1] the target is T1, TstI restriction-modification protein (His-tagged) (Thermus scotoductus RFL1 (printed as T. scotoductus RFL1)) (UniProt A6H2J1).
T1 sequence: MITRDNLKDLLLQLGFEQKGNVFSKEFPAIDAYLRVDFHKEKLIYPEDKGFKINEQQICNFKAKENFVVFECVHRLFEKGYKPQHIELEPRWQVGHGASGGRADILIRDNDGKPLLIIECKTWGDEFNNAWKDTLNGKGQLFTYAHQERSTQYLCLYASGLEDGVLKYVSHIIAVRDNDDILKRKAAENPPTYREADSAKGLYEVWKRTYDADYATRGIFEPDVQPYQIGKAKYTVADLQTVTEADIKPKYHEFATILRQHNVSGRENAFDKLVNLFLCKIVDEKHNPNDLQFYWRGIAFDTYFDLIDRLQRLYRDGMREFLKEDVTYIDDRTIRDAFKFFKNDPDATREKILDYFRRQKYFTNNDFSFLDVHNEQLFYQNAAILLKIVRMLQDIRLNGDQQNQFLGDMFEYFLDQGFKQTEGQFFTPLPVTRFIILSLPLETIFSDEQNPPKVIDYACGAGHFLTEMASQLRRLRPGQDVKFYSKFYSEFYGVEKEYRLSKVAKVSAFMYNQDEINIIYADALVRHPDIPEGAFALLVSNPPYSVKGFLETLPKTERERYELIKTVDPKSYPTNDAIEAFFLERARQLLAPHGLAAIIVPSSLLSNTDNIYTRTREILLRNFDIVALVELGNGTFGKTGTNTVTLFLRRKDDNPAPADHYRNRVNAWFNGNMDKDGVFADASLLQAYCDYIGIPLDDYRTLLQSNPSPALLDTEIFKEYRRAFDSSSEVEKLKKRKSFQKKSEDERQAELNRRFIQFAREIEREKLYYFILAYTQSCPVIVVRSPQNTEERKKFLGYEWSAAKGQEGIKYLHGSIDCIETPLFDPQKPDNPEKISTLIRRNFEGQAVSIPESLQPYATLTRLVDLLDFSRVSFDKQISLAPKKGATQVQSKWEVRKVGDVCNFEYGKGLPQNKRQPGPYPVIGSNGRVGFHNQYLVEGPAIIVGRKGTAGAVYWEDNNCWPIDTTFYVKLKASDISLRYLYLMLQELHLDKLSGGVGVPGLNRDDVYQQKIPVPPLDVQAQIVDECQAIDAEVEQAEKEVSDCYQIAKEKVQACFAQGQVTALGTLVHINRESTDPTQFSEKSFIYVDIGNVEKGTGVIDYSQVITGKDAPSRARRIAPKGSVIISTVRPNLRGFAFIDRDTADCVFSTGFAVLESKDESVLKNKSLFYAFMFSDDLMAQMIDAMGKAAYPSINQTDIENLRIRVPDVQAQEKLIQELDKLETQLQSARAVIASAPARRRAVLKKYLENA
Briefly: cleavage kinetics: kobs vs enzyme concentration, hyperbolic fit (no direct binding read-out). The note with it: EMSA conditions not given (data not shown); cleavage in buffer R (composition not in material), 37 C. For orientation: Mobility shift assays separate free from complexed probe on a gel.

Series [2] deals with TstI RM protein (His-tagged form) (Thermus scotoductus RFL1). In words: AUC; sedimentation equilibrium; TstI 0.1-0.3 mg/ml in 20 mM Tris-HCl pH 8.4, 100 mM KCl, 10 mM MgCl2, 20°C; 5000, 6000 and 7500 rpm; global fit to a single ideal species.
For series [3], the target named is T2, TstI restriction-modification protein (His-tagged) (Thermus scotoductus RFL1 (printed as T. …, UniProt A6H2J1 1-1251)).
T2 sequence: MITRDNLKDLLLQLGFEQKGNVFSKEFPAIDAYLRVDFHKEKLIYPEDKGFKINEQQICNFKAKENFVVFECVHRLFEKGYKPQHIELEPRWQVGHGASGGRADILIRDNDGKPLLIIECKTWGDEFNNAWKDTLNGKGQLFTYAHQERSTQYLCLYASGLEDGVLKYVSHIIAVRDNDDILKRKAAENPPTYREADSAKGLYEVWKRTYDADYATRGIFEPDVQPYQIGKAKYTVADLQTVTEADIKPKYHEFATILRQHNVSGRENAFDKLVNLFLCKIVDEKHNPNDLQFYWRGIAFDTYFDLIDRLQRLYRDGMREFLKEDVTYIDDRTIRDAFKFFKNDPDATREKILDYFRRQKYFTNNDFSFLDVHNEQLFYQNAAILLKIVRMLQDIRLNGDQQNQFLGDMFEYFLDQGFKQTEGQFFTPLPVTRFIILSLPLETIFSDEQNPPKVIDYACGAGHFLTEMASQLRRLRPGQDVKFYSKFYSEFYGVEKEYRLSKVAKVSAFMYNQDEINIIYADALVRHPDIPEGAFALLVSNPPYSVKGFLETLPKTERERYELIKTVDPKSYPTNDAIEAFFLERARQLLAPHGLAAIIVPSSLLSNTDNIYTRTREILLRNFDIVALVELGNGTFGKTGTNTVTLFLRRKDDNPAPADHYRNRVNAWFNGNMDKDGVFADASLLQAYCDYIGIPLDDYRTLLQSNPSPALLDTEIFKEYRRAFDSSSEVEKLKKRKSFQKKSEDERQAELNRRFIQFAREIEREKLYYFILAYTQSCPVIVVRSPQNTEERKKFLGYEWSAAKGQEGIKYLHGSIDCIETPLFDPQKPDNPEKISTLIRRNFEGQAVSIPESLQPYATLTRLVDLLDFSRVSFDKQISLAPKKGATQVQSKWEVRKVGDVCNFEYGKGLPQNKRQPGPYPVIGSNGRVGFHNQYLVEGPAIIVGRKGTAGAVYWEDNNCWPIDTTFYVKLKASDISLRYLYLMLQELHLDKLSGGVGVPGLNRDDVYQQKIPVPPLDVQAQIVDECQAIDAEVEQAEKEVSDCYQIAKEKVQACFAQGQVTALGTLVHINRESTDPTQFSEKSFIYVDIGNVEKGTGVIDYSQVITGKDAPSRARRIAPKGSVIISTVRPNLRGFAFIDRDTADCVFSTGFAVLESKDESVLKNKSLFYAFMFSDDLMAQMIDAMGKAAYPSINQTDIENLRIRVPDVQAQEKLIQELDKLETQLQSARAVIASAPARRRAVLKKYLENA
Briefly: EMSA; data not shown; EMSA conditions not given (data not shown); cleavage in buffer R (composition not in material), 37 C. Conditions: protein: recombinant; tags: N-terminal His tag (pET15b, 20 extra aa); chain copies: 4.

We go through 3 molecules from article PMC4027205, “TstI, a Type II restriction–modification protein with DNA recognition, cleavage and methylation functions in a single polypeptide”.

Take pTST1: the K half in series [1] stood at 19 nM.

The molecule “TstI RM protein (His-tagged form) (enzyme)” came in with a stoichiometry N in series [2] of 4.

B1: 50NS (dsDNA)
DNA 1: CTGTCTGAGATACACTCGTCTCGAACAAACCATCCAGTCTCTGACTATGT
DNA 2: ACATAGTCAGAGACTGGATGGTTTGTTCGAGACGAGTGTATCTCAGACAG
Take B1: the binding result in series [3] is listed as “binds”.

As usually defined, the stoichiometry N is the number of molecules, sites or subunits per partner or assembly.
